{
  "source": "paper PMC6450523",
  "about": "“Substrate-analogue complex structure of Mycobacterium tuberculosis decaprenyl diphosphate synthase” (Acta Crystallographica. Section F, Structural Biology …, 2019)",
  "proteins": {"B1": {"name": "Decaprenyl diphosphate synthase from Mycobacterium tuberculosis (enzyme)", "chain": "MARDARKRTSSNFPQLPPAPDDYPTFPDTSTWPVVFPELPAAPYGGPCRPPQHTSKAAAPRIPADRLPNHVAIVMDGNGRWATQRGLARTEGHKMGEAVVIDIACGAIELGIKWLSLYAFSTENWKRSPEEVRFLMGFNRDVVRRRRDTLKKLGVRIRWVGSRPRLWRSVINELAVAEEMTKSNDVITINYCVNYGGRTEITEATREIAREVAAGRLNPERITESTIARHLQRPDIPDVDLFLRTSGEQRSSNFMLWQAAYAEYIFQDKLWPDYDRRDLWAACEEYASRTRRFGSA", "notes": "also called MtDPPS; Rv2361c"}},
  "target": "the molecule itself",
  "experiment": "crystal structure; sitting-drop vapour diffusion at 25°C, 0.1 M HEPES pH 7.5, 10% glycerol, 25% PEG 400, 7% PEG 3000; crystals soaked with 1 mM ISPP and 1 mM GSPP for 6 h; 1.55 Å, space group P212121, one dimer in the asymmetric unit",
  "data": [
    {"protein": "B1", "values": [
      {"measurement": "stoichiometry N", "result": 2}
    ]}
  ]
}
